# Laboratory results published in IntAct's records for PubMed 18647389.
# B1: RalBP1-associated Eps domain-containing protein 2 (Homo sapiens), Q8NFH8 (parent)
# chain: MEAAAAAAAAAAAAAAAGGGCGSGPPPLLLSEGEQQCYSELFARCAGAAGGGPGSGPPEAARVAPGTATAAAGPVADLFRASQLPAETLHQITELCGAKRVGYFGPTQFYIALKLIAAAQSGLPVRIESIKCELPLPRFMMSKNDGEIRFGNPAELHGTKVQIPYLTTEKNSFKRMDDEDKQQETQSPTMSPLASPPSSPPHYQRVPLSHGYSKLRSSAEQMHPAPYEARQPLVQPEGSSSGGPGTKPLRHQASLIRSFSVERELQDNSSYPDEPWRITEEQREYYVNQFRSLQPDPSSFISGSVAKNFFTKSKLSIPELSYIWELSDADCDGALTLPEFCAAFHLIVARKNGYPLPEGLPPTLQPEYLQAAFPKPKWDCQLFDSYSESLPANQQPRDLNRMEKTSVKDMADLPVPNQDVTSDDKQALKSTINEALPKDVSEDPATPKDSNSLKARPRSRSYSSTSIEEAMKRGEDPPTPPPRPQKTHSRASSLDLNKVFQPSVPATKSGLLPPPPALPPRPCPSQSEQVSEAELLPQLSRAPSQAAESSPAKKDVLYSQPPSKPIRRKFRPENQATENQEPSTAASGPASAATMKPHPTVQKQSSKQKKAIQTAIRKNKEANAVLARLNSELQQQLKEVHQERIALENQLEQLRPVTVL
# B2: RalBP1-associated Eps domain-containing protein 2 (Homo sapiens), Q8NFH8 (parent)
# chain: B1 chain
# partner: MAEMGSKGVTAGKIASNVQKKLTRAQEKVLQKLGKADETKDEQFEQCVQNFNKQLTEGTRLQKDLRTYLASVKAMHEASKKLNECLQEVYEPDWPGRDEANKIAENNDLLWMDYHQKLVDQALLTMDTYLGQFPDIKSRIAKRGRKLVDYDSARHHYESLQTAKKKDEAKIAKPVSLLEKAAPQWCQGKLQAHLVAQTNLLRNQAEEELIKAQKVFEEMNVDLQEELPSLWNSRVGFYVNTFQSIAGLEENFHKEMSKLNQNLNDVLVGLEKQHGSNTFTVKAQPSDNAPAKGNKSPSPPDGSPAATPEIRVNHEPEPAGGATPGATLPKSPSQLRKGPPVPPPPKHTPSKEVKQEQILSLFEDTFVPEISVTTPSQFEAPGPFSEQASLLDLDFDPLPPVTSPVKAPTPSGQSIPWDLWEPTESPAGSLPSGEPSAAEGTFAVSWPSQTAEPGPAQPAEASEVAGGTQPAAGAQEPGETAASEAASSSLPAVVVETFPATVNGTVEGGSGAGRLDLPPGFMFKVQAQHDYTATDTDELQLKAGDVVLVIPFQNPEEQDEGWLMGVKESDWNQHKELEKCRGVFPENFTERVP
# Variants of: B1
# Settings: with 1433z_human YWHAZ
row,effect of a mutation on the interaction,Variant
1,disrupting interaction,S493A

# Variants of: B1
# Settings: with grb2_human GRB2, P62993
row,effect of a mutation on the interaction,Variant
1,disrupting interaction,R483A

# Variants of: B1
# Settings: with grb2_human GRB2, P62993
# Remark: another data set of the same source
row,effect of a mutation on the interaction,Variant
1,disrupting interaction,P480A

# Variants of: B1
# Settings: with grb2_human GRB2, P62993
# Remark: another data set of the same source
row,effect of a mutation on the interaction,Variant
1,disrupting interaction,P484A

# Variants of: B2
# Settings: with bin1_human BIN1, O00499
row,effect of a mutation on the interaction,Variant
1,disrupting interaction,P447A

# Variants of: B2
# Settings: with bin1_human BIN1, O00499
# Remark: another data set of the same source
row,effect of a mutation on the interaction,Variant
1,decreasing interaction,R483A

# Variants of: B2
# Settings: with bin1_human BIN1, O00499
# Remark: another data set of the same source
row,effect of a mutation on the interaction,Variant
1,disrupting interaction strength,R483A
